In article PMC7519114:
Each block holds one molecule with its values, some of them ahead of it.

Columns and labels:
[1] = target: ACKR3 of primary mouse astrocytes (mouse (endogenous in primary astrocytes)) (UniProt P56485)
[2] = target: ACKR3 of primary mouse astrocytes (mouse (endogenous in primary astrocytes)) (UniProt P56485); remark: listed apart in the source

UniProt P56485, sequence (P56485 whole entry): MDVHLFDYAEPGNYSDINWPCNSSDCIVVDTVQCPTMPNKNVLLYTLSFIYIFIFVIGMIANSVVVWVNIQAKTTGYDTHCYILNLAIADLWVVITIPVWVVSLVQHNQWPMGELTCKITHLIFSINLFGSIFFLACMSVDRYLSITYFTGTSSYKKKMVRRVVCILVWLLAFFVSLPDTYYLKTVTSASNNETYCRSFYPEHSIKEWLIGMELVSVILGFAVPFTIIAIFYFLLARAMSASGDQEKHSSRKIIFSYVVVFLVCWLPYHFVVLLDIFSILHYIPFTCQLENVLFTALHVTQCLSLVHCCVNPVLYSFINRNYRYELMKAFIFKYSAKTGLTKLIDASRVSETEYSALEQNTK

junctional current (Ij) magnitude in astrocyte cell pairs (double patch-clamp), after bath-application of CXCL12 [1]: 56.5%
inhibition of forskolin-induced cAMP production in astrocytes, CXCL12 (10 nM) [2]: 40.8 % inhibition
inhibition of forskolin-induced cAMP production in astrocytes, CXCL12 after pre-treatment with the CXCR4 antagonist AMD3100 (1 μM, 30 min) [2]: 44.9%
Molecule: Human/Feline/Rhesus Macaque CXCL12 (from UniProt P48061 22-93) (ligand)

junctional current (Ij) magnitude in astrocyte cell pairs (double patch-clamp), after bath-application of CXCL11 [1]: 52%
B1: Recombinant mouse CXCL11 (ligand)
chain: FLMFKQGRCLCIGPGMKAVKMAEIEKASVIYPSNGCDKVEVIVTMKAHKRQRCLDPRSKQARLIMQAIEKKNFLRRQNM
